From patent US9035028B2, “Temperature sensitive conjugate compositions” (Emory University, priority 2010, dated 2015)
Where a SMILES comes first, the peptide text is derived from it. Bridges are numbered along the chain shown (N, C = ends). [ ]: non-standard residue; d: D form. hArg = N=C(N)NCCCC[C@H](N)C(=O)O; Mpa = O=C(O)CCS

Experiments:
[1] = molecular target: T1, αv/β3 integrins on vascular cells (Homo sapiens, UniProt P05106+P06756); details: cited from earlier work
T1 construct: host or cells: vascular cells (not specified)
T1 sequence (P06756 31-889 limits assumed): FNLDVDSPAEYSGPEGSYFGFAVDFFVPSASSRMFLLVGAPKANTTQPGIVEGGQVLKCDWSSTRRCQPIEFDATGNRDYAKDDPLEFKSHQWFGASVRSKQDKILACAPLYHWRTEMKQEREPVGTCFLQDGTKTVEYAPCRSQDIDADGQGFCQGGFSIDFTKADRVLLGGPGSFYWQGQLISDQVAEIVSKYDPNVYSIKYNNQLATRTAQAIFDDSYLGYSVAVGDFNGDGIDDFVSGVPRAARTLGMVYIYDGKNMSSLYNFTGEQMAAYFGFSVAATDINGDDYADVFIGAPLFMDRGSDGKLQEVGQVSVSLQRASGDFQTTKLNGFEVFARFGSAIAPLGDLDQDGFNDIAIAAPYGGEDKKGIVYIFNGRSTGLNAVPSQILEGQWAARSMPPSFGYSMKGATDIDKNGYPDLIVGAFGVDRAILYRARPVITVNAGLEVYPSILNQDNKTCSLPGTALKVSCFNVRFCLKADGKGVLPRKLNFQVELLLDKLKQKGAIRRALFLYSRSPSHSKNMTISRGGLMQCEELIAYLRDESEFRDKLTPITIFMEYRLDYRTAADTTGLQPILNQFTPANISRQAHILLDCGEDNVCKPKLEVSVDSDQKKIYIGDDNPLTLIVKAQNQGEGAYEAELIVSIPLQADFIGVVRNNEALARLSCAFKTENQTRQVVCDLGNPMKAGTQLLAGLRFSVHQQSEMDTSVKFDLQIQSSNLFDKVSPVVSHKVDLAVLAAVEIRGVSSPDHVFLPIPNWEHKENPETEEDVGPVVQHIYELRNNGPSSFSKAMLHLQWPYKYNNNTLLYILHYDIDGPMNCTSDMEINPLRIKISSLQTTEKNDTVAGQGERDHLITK
T1 sequence (P06756 891-1048 partner limits assumed): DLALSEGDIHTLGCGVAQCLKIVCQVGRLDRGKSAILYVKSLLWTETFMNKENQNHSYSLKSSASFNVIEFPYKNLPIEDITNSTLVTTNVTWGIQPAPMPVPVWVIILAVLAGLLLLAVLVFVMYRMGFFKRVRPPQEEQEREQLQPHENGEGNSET
T1 sequence (P05106 27-788): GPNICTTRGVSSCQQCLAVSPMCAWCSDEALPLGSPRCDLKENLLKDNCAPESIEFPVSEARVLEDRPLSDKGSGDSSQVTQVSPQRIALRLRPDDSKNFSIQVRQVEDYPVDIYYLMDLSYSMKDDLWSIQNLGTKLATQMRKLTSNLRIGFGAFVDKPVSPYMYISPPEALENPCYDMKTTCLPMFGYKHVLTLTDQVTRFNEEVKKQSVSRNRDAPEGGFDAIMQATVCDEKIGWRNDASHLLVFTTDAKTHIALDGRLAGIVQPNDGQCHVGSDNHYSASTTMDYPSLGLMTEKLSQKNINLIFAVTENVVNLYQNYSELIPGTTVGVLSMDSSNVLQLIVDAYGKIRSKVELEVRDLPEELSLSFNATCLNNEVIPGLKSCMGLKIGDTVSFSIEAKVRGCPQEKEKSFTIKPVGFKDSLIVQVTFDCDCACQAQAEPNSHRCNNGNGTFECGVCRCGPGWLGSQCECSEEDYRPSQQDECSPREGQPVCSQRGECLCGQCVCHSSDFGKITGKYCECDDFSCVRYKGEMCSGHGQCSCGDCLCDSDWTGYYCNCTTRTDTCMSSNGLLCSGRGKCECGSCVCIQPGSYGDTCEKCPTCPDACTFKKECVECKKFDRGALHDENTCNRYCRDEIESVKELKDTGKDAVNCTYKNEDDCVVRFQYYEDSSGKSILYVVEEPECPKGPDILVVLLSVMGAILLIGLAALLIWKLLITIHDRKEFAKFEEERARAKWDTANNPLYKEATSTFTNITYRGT

[2] = system: activated human platelets; assay: Microscopic analysis of platelet aggregates; assay type: cell-based; details: both temperatures (22° C. and 37° C.)
Method: For the microscopic analysis of platelet aggregates at different temperatures, non-diluted human PRP was placed onto a glass slide and ADP was added to a final concentration of 20 μM, in the presence and absence of EMP-scFv (50 μg/mL). Abciximab was used as a positive control at a concentration of 10 μg/mL. The experiments were conducted at 22° C. and 37° C. Phase contrast microscopy images were taken using an Olympus CKX41 microscope.

[3] = molecular target: T2, GPIIb/IIIa (integrin alphaIIb beta3) on human platelets (human, UniProt P08514 32-1039; P05106 27-788); assay: flow cytometry, resting and ADP-activated human platelets, 22° C., 32° C. and 37° C.
T2 construct: whole, on cells; also called GPIIb/IIIa receptor; glycoprotein IIb/IIIa

[4] = Circular dichroism (CD) spectra and thermal transition profile; assay type: physicochemical
Method: The mathematical fitting of the CD data allowed the determination of the transition temperature (Tt) resulting from conformational change of EMP as the temperature is increased. The mathematical fitting of the CD data to the van't Hoff equation allowed the determination of the transition temperature (Tt) resulting from conformational change of EMP and EMP-scFv as the temperature is increased.
Circular dichroism (CD) spectra were recorded on a Jasco J-810 spectropolarimeter equipped with a PFD-425S Peltier temperature control unit in 0.1 cm sealed quartz cells at concentrations of 7.5 μM (EMP), 8.4 μM (scFv) and 4.1 μM (EMP-scFv) in 50 mM sodium phosphate buffer, pH 7.4. Temperature/wavelength CD-scans were performed within the temperature range from 5° C. to 35° C. with equilibration for 10 min at each temperature. Spectra were obtained from 260 to 190 nm at a resolution of 0.5 nm and at a scanning speed of 50 nm/min. The CD curves represented the average of five measurements and were smoothed using the means-movement method on the interval analysis of the spectral manager program. CD data are reported as mean residue ellipticity ([θ], deg cm^2 dmol^−1). Thermal transition curves were plotted by the mean residue ellipticity as a function of temperature for the disappearance of the random coil and the appearance of the β-turn structure.

GPIIb/IIIa = GPIIb/IIIa (Homo sapiens, UniProt P05106+P08514); assay: Specificity of scFv (studies in applicant's laboratory); assay type: binding
[5] = in contrast to conformation unspecific GPIIb/IIIa inhibitors; cited from earlier work
[6] = molecular target: T3, GPIIb/IIIa on human platelets (Homo sapiens, UniProt P05106+P08514); assay: Flow cytometry: binding to human platelets; details: regardless of the temperature
T3 construct: endogenous in cells
Method: Human blood was collected by venipuncture with a 21-gauge butterfly needle from healthy volunteers and anticoagulated with citric acid. Platelet-rich plasma (PRP) was obtained by centrifugation (GS-6R centrifuge, Beckman Coulter) at 100×g at room temperature for 10 min.
Human PRP was diluted 1/50 in modified Tyrode's buffer containing 2 mM MgCl2 and 2 mM CaCl2. Platelets were either activated by addition of 20 μM ADP, or non activated, followed by the incubation with 15 and 50 μg/mL EMP-scFv fusion protein or EMP at 22° C., 32° C. and at 37° C. for 15 min. Mouse platelets were either pre-activated for 10 min by addition of 0.1 U/mL thrombin (Enzyme Research Laboratories), or non activated, before the incubation with 15 and 50 μg/mL of EMP-scFv fusion protein at 22° C., 32° C. or 37° C. for 15 min. In both, human and mouse samples, EMP-scFv was detected via 15 min in-dark incubation with secondary antibody (Penta-His Alexa Fluor 488, Qiagen) directed against the His(6)-tag of the single-chain antibody.
In re-warming experiments, activated and non-activated diluted human PRP was incubated with 15 and 50 μg/mL of EMP-scFv for 15 minutes at 22° C., followed by a 15-min in dark incubation with secondary Penta-His Alexa Fluor 488 antibody. Half of the reaction was then fixed with 1× Cell FIX, while the other half was incubated at 37° C. for either 15 or 30 minutes, before being fixed and measured in FACS.

For N=C(N)NCCCC[C@@H]1NC(=O)CCSSC[C@@H](C(N)=O)NC(=O)[C@@H]2CCCN2C(=O)[C@H](Cc2c[nH]c3ccccc23)NC(=O)[C@H](CC(=O)O)NC(=O)CNC1=O [eptifibatide] ([Mpa][hArg]GDWPC-NH2; disulfide 1-7), the “ligand binding to αv/β3 integrins on vascular cells” value [1] is given as “antagonize ligand binding”.

For abciximab [reference compound], the “aggregation of activated human platelets (microscopy)” value [2] is listed as “abolishes aggregation” and the “ligand binding to αv/β3 integrins on vascular cells” value [1] is listed as “antagonize ligand binding”.

B1: EMP alone (elastin-mimetic polypeptide without scFv) (other)
chain: MAVPAVGIPAVGIPAVGIPAVGIPAVGIPAVGIPAVGIPAVGIPAVGIPAVGIPAVGIPAVGIPAVGIPAVGIPAVGIPAVGIPAVGIPAVGIPAVGIPAVGIPAVGIPAVGIPAVGIPAVGIPAVGIPAVGIPAVGIPAVGIPAVGIPAVGIPAVGIPAVGIPAVGIPAVGIPAVGIPAVGIPAVGIPAVGIPAVGIPAVGIPAVGIPAVGIPAVGIPAVGIPAVGIPAVGIPAVGIPAVGIPAVGIPAVGIPAVGIPAVGIPAVGIPAVGIPAVGIPAVGIPAVGIPAVGIPAVGIPAVGIPAVGIPAVGIPAVGIPAVGIPAVGIPAVGIPAVGIPAVGIPAVGIPAVGIPAVGIPAVGIPAVGIPAVGIPAVGIPAVGIPAVGIPAVGIPAVGIPAVGIP
B1: no binding (tested: 15 and 50 µg/mL) [3].

B2: scFv: activation-specific GPIIb/IIIa-blocking single-chain antibody, SEQ ID NO: 13 (protein)
scFv: MAEVQLVESGGGLVQPGGSLRLSCAASGFMFSRYAMSWVRQAPGKGPEWVSGISGSGGSTYYADSVKGRFTVSRDNSKNTLYLQMNSLRAEDTAVYYCARIFTHRSRGDVPDQTSFDYWGQGTLVTVSSGSASAPKLEEGEFSEARVSSELTQDPAVSVALGQTVRITCQGDSLRNFYASWYQQKPGQAPTLVIYGLSKRPSGIPDRFSASSSGNTASLTITGAQAEDEADYYCLLYYGGGQQGVFGGGTKLTVLRQPKAAPSVTLFPPSSAAAGSEQKLISEEDLNS
For B2, the “conformational changes in CD” value ([4]; temperature increased up to 35° C.) is listed as “No significant conformational changes”, the specificity of binding (GPIIb/IIIa) is listed as “GPIIb/IIIa-specific and binds to activated platelets exclusively” and the bleeding time [5] is listed as “does not prolong bleeding time”.

B3: EMP: elastin mimetic polypeptide, sixteen repeats of monomer (IPAVG)5, SEQ ID NO: 11, approximately 35 kDa (protein)
chain: B1 chain
In the case of B3, the “transition temperature (Tt)” value ([4]; CD data at 198 and 220 nm, van't Hoff fit) is reported as “approximately 26 °C” and the “binding to resting or activated platelets” value [6] is reported as “did not bind”.
